Experimental data published in PMC10870365, “Dissection of protein and RNA regions required for SPEN binding to XIST A-repeat RNA”.

Target: T1, SPEN RRM 2-3 (Homo sapiens) (UniProt Q96T58)
T1 sequence: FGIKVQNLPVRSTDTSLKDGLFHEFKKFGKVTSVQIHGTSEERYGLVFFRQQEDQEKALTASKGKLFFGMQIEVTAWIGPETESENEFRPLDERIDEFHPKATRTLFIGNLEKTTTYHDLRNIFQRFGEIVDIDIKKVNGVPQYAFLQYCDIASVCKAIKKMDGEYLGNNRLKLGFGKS
Test: EMSA
Conditions: EMSA: 20 mM Tris-HCl pH 7.5, 150 mM KCl, 5 mM MgCl2, 10% glycerol, room temperature 30 min, 2 nM each labeled RNA (multiplexed), 4.5% TBE native gel

Row | Sequence | Kd [µM]
1 | GGGCUGCGGAUACCUGGUUUUAUUAUUUUUUCUUUGCCCAACGGGGCCGUGGAUACCUGCCUUUUAAUUCUUUUUUAUUCGCCCAUCGGGGCCGCGGAUACCUGCUUUUUAUUUUUUUUUCCUUAGCCCAUCGGGGUAUCGGAUACCUGCUGAUUCCCUUCCCCUCUGAACCCCCAACACUCUGGCCCAUCGGGGUGACGGAUAUCUGCUUUUUAAAAAUUUUCUUUUUUUGGCCCAUCGGGGCUUCGGAUACCUGCUUUUUUUUUUUUUAUUUUUCCUUGCCCAUCGGGGCCUCGGAUACCUGCUUUAAUUUUUGUUUUUCUGGCCCAUCGGGGCCGCGGAUACCUGCUUUGAUUUUUUUUUUUCAUCGCCCAUCGGUGCU [XIST A-full] | 1.05
2 | GUACCAGGUAUGUGAUGACAUCAGCCGACGCCUGGCACUGCUGCAGGAACAGUGGGCUGGAGGAAAGUUGUCAAUACCUGUAAAGAAGAGAAUGGCUCUACUGGUGCAAGAGCUUUCAAGCCACCGGUGGGACGCAGCAGAUGACAUCCACCGCUCCCUCAUGGUUGACCAUGUGACUGAGGUCAGUCAGUGGAUGGUAGGAGUUAAAAGAUUAAUUGCAGAAAAGAGGAGUCUGUUUUCAGAGGAGGCAGCCAAUGAAGAGAAAUCUGCAGCCACAGCUGAGAAGAACCAUACCAUACCAGGCUUCCAGCAGGCUUCAUAAUCCUCGGUUCCCCAGACUCACCGGACACCAUCUCCU [SRA] | 5.57
